Measurements: patent US7816543B2, “Leptomycin derivatives” (Sanofi-Aventis, priority 2006, dated 2010)

Experiments:
A375 cells = experiment: Cytotoxicity evaluation on A375 cells; format: cell-based, human; conditions: FIG. 1
Text: (§1) The human cancer cell lines HL60, Namalwa, A-375, COLO205 and Ramos were obtained from the American Type Culture Collection (ATCC). Kara is a murine tumor cell line that has been stably transfected with the human CD33 antigen.

[1] = system: COLO 205 (CanAg antigen-positive) cancer cells; experiment: Cytotoxicity evaluation on COLO 205 cells; format: cell-based, human; conditions: COLO 205 (CanAg antigen-positive) cells, FIG. 1
Text: as §1

B1: huC242-SSNPB-leptomycin of example 6 (conjugate, chains of the INN, looked up)
VH: QVQLVQSGAEVKKPGETVKISCKASDYTFTYYGMNWVKQAPGQGLKWMGWIDTTTGEPTYAQKFQGRIAFSLETSASTAYLQIKSLKSEDTATYFCARRGPYNWYFDVWGQGTTVTVSS
VL: DIVMTQSPLSVPVTPGEPVSISCRSSKSLLHSNGNTYLYWFLQRPGQSPQLLIYRMSNLVSGVPDRFSGSGSGTAFTLRISRVEAEDVGVYYCLQHLEYPFTFGPGTKLELK
modifications: SSNPB-leptomycin conjugate
For B1, the IC50 (A375 cells) was greater than 5 nM and the IC50 [1] was 0.13 nM.
